{"source": "paper PMC10925295", "about": "(bioRxiv, 2024)", "key": {"[1]": {"target": "UbcH5B-GSlinker-ccRING3 fusion protein (UniProt Q86YT6)", "assay": "crystal structure"}, "[2]": {"target": "the molecule itself", "assay": "crystal structure"}, "[3]": {"target": "the molecule itself", "assay": "SEC-MALS"}}}
{"molecule": "UbcH5B-GSlinker-ccRING3 fusion protein (from UniProt Q86YT6 936-1006)", "values": [{"measurement": "stoichiometry N", "setting": "[1]", "result": 2}]}
{"molecule": "ccRING3 region of human MIB1 (third RING domain and adjacent coiled coil region, residues 936-1006) (domain or fragment) KDKDNTNVNADVQKLQQQLQDIKEQTMCPVCLDRLKNMIFLCGHGTCQLCGDRMSECPICRKAIERRILLY", "values": [{"measurement": "stoichiometry N", "setting": "[2]", "result": 2}]}
{"molecule": "ANK-RING1-3 of hMIB1 (residues 417-1006) (domain or fragment) QLLKKLFETQESGDLNEELVKAAANGDVAKVEDLLKRPDVDVNGQCAGHTAMQAASQNGHVDILKLLLKQNVDVEAEDKDGDRAVHHAAFGDEGAVIEVLHRGSADLNARNKRRQTPLHIAVNKGHLQVVKTLLDFGCHPSLQDSEGDTPLHDAISKKRDDILAVLLEAGADVTITNNNGFNALHHAALRGNPSAMRVLLSKLPRPWIVDEKKDDGYTALHLAALNNHVEVAELLVHQGNANLDIQNVNQQTALHLAVERQHTQIVRLLVRAGAKLDIQDKDGDTPLHEALRHHTLSQLRQLQDMQDVGKVDAAWEPSKNTLIMGLGTQGAEKKSAASIACFLAANGADLSIRNKKGQSPLDLCPDPNLCKALAKCHKEKVSGQVGSRSPSMISNDSETLEECMVCSDMKRDTLFGPCGHIATCSLCSPRVKKCLICKEQVQSRTKIEECVVCSDKKAAVLFQPCGHMCACENCANLMKKCVQCRAVVERRVPFIMCCGGKSSEDATDDISSGNIPVLQKDKDNTNVNADVQKLQQQLQDIKEQTMCPVCLDRLKNMIFLCGHGTCQLCGDRMSECPICRKAIERRILLY", "values": [{"measurement": "stoichiometry N", "setting": "[3]", "result": 2}]}
